pKd: −log10 of the molar value.
Columns and labels:
[1] = target: human Twisted gastrulation (residues Cys26-Phe223) (human) (UniProt Q9GZX9); test: SPR
[2] = target: human Twisted gastrulation Leu107Ala (human) (UniProt Q9GZX9); test: SPR
Sequence of human Twisted gastrulation Leu107Ala (human) (Q9GZX9 26-223 L107A): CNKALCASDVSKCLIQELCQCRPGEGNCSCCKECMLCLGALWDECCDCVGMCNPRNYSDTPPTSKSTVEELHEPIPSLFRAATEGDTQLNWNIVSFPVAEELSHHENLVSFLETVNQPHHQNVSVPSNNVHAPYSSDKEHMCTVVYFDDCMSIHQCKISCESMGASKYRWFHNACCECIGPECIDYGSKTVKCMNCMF

Sequence of human Twisted gastrulation (residues Cys26-Phe223) (human) (Q9GZX9 26-223): as the sequence (Q9GZX9 26-223 L107A) above, with A82L counted along it

Substance: human CHRDL2 (Arg24-Thr429) (natural protein)
- pKd [1]: 8.30
- pKd [2]: 7.96

— doi:10.1101/2024.07.08.602551
